Data as given in patent US20030059419.
Residue numbers refer to the chain shown, from its start. Names may count otherwise.

T1: GST-I-TRAF (human I-TRAF as a chimera protein with glutathione S transferase, purified from E. coli), Q92844
T1 chain: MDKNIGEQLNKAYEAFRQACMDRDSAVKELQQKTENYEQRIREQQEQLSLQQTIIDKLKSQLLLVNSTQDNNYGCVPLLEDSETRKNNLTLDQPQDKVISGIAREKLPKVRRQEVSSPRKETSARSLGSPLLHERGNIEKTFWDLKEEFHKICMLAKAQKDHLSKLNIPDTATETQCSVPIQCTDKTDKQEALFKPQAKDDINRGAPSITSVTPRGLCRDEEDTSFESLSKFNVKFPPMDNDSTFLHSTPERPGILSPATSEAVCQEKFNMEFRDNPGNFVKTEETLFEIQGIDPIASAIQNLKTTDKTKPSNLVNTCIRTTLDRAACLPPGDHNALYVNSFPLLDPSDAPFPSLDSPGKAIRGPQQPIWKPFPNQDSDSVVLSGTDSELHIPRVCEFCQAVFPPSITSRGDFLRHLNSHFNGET

T2: Myc-I-TRAF (human I-TRAF, full length, with a Myc epitope added to the N-terminal), Q92844
T2 chain: T1 chain

B1: Flag-IKK-i (human IKK-i with a Flag epitope linked to the N-terminal) (protein)
chain: MQSTANYLWHTDDLLGQGATASVYKARNKKSGELVAVKVFNTTSYLRPREVQVREFEVLRKLNHQNIVKLFAVEETGGSRQKVLVMEYCSSGSLLSVLESPENAFGLPEDEFLVVLRCVVAGMNHLRENGIVHRDIKPGNIMRLVGEEGQSIYKLTDFGAARELDDDEKFVSVYGTEEYLHPDMYERAVLRKPQQKAFGVTVDLWSIGVTLYHAATGSLPFIPFGGPRRNKEIMYRITTEKPAGAIAGAQRRENGPLEWSYTLPITCQLSLGLQSQLVPILANILEVEQAKCWGFDQFFAETSDILQRVVVHVFSLSQAVLHHIYIHAHNTIAIFQEAVHKQTSVAPRHQEYLFEGHLCVLEPSVSAQHIAHTTASSPLTLFSTAIPKGLAFRDPALDVPKFVPKVDLQADYNTAKGVLGAGYQALRLARALLDGQELMFRGLHWVMEVLQATCRRTLEVARTSLLYLSSSLGTERFSSVAGTPEIQELKAAAELRSRLRTLAEVLSRCSQNITETQESLSSLNRELVKSRDQVHEDRSIQQIQCCLDKMNFIYKQFKKSRMRPGLGYNEEQIHKLDKVNFSHLAKRLLQVFQEECVQKYQASLVTHGKRMRVVHETRNHLRLVGCSVAACNTEAQGVQESLSKLLEELSHQLLQDRAKGAQASPPPIAPYPSPTRKDLLLHMQELCEGMKLLASDLLDNNRIIERLNRVPAPPDV
B2: mutant IKK-i (K38A), Flag-tagged human IKK-i with the No. 38 lysine replaced by alanine (protein)
chain: B1 chain with K38A

Assays:
[1] = target: GST-IκB-αN protein (WT), amino acids 1-72 of IκB-α fused to GST [GST: P08515]
[2] = target: GST-IκB-αN protein (AA), GST-IκB-αN with the No. 32 and No. 36 serine residues replaced by alanine [GST: P08515]
[3] = target: Myc-I-TRAF (1-247) defective mutant, human I-TRAF amino acids No. 1-247 with N-terminal Myc, Q92844
[4] = target: T1, GST-I-TRAF (human I-TRAF as a chimera …)
[5] = target: T2, Myc-I-TRAF (human I-TRAF, full length, …)

Row | Protein | in vitro kinase assay ([γ-32P]ATP, 30° C., 20 minutes, SDS-PAGE, autoradiography) [1] | in vitro kinase assay ([γ-32P]ATP, 30° C., 20 minutes, SDS-PAGE, autoradiography) [2] | in vitro kinase assay on immunoprecipitates, I-TRAF deletion mutants [3] | in vitro kinase assay with purified GST-I-TRAF (1.0 µg) added to the anti-Flag immunoprecipitate [4] | in vitro kinase assay ([γ-32P]ATP) on immunoprecipitates [5] | in vitro kinase assay on immunoprecipitates, I-TRAF deletion mutants [5]
1 | B1 | IKK-i phosphorylated GST-IκB-αN protein (WT) | IKK-i did not phosphorylate GST-IκB-αN protein (AA) | phosphorylations of FL (lanes 4 and 8) and Myc-I-TRAF (1-247)(lanes 2 and 6) were confirmed | in cells in which Flag-IKK-i was expressed, phosphorylation of GST-I-TRAF was observed | Bands of phosphorylated Myc-I-TRAF were detected in both of immunoprecipitates with anti-Flag antibody (lane 2) or anti-Myc antibody (lane 4) | phosphorylations of FL (lanes 4 and 8) and Myc-I-TRAF (1-247)(lanes 2 and 6) were confirmed
2 | B2 | K38A-IKK-i did not phosphorylate GST-IκB-αN protein (WT) |  |  | No phosphorylation was observed with the K38A mutant |  | 
